Assay: soluble on expression in E. coli; label from the status in PepcDB or PDB records
With “MGSDKIHHHHHHMSSNNRKKLLLMGRSGSGKSSMRSIIFSNYSAFDTRRLGATIDVEHSHLRFLGNMTLNLWDCGGQDVFMENYFTKQKDHIFQMVQVLIHVFDVESTEVLKDIEIFAKALKQLRKYSPDAKIFVLLHKMDLVQLDKREELFQIMMKNLSETSSEFGFPNLIGFPTSIWDESLYKAWSQIVCSLIPNMSNHQSNLKKFKEIMNALEIILFERTTFLVICSSNGENSNENHDSSDNNNVLLDPKRFEKISNIMKNFKQSCTKLKSGFKTLILNNNIYVSELSSNMVCFIVLKDMNIPQELVLENIKKAKEFFQ” the “soluble on expression in E. coli” value was “not soluble”. In the case of “SYIDIPPEGSETKNRHNANNPSDVLVIENKHLTKEWPSGGQMMVNNLTAKYTSDGRAVLQDLSFSVNAGQRVGLLGRTGAGKSTLLSALLRLLSTEGEIQIDGISWNSVSLQKWRKAFGVIPQKVFVFSGTFRKNLDPYEQWSDEEIWKVTEEVGLKSMIEQFPDKLNFVLVDGGYILSNGHKQLMCLARSILSKAKILLLDEPTAHLDPVTFQIIRKTLKHTFSNCTVILSEHRVEALLECQQFLVIEGCSVKQFDALQKLLTEASLFKQVFGHLDRAKLFTAHRRNSSKRKTRPKISALQ”, the “soluble on expression in E. coli” value is reported as “not soluble”. For “MNIYVLMKRTFDTEEKIVIKNGAIYDGEAEFIINPYDEYAIEEAIQVRDAQGGEVTVVTVGGEDSEKELRTALAMGCDKAVLINIEDDVENGDQFTTAKVLAEYLKDKDADLILGGNVAIDGASGQVGPRVAEALNIPYVTTITKLEIDGTNVKIERDVEGDTEVVETSLPVLVTAQQGLNEPRYPSLPGIMKAKKKPLEELELDDLDLEEDDVEAKTKTIEIYLPPKKDAGKVLQGELQDQVKELVSLLHTEAKVI”, the “soluble on expression in E. coli” value was “not soluble”. For “MYVTVTEAAYKKIMDTIPSEAKYIKLFYDNEGCGCVMSGIIDLVAVAEKDERDVDIESSTMNFIADRTKLVFMDDKLTVDWHEGGGTFQLKSPSQFYNPNMKLHVRV”, the “soluble on expression in E. coli” value was “not soluble”. With “MSIALLAAATSSMAQSLDKMNWLNEPQQWEIKEGKALVMDVPAKTDFWRISHYGFTVDDGPFYYATYGGEFEVKVKITGNYVTTFDQMGLMLRIDHENWIKAGVEYVDGKQNVSAVVTHRTSDWSVVQLPDAPRSLWIKAVRRLDAVEIFFSRDDKEYTMIRTCWLQDNCPVMVGLMGACPDGKGFTATFEEFKVTPLADQRRLEWAKKQADKLEHHHHHH” the “soluble on expression in E. coli” value was “not soluble”. In the case of “MGSDKIHHHHHHMSQNASNDHMALSEDYVRNFFTYADPDNEAMLQLYRIGVFRTAKALSAGWIMPDEDARTARNLEYLRDNFEPGDVSVGELVSSETQLASFPDIYFRIRKVLDSPNSSADDISREISNDLGLTAKLLKLVNSPFYGLAHTVEDVSHAIAIVGVEEVSTLALGISAINVFKDIPQELIDMKAFWKHSVSCGVFAKLIASRIEGMKADKFFTAGLLHDVGRLIIFKKMPYASVQLLLYARENQLPVVESEEDHLGFDHTQVAKQLLTEWKFPASMVDCLAFHHAPSQAQDQLAASILQLADNMANAMEISSGGMYLLPGMEEGAWERIPLQGDDLVEIVGLFDSHIEELFKAIL”, the “soluble on expression in E. coli” value is reported as “not soluble”. With “ADPDTGVDTGAPYWTRPERMDKKLLAVPAANTVRFRCPAAGNPTPSISWLKNGREFRGEHRIGGIKLRHQQWSLVMESVVPSDRGNYTCVVENKFGSIRQTYTLDVLERSPHRPILQAGLPANQTAVLGSDVEFHCKVYSDAQPHIQWLKHVEVNGSKVGPDGTPYVTVLKSWISESVEADVRLRLANVSERDGGEYLCRATNFIGVAEKAFWLSVHGPRAAEEELVEADEAGSVHHHHHH” the “soluble on expression in E. coli” value was “soluble”. With “MGSDKIHHHHHHMEIKQLRYFIEVAKREHISETALELNIAQSAISRQITLLEQELNVSLFKKQGRNITLTSEGKLLFNEALRIIEHLDSTIEQFQSHGLTKNKSIYIGYDESDVSHMLLPLIQTFHLQNDTHVIPSLLDHDTIINSVLNGNIDIGFTELTPEIRKHKQLHMLPLFEEHYHLYAPSDDPITMATHPPLIQFEHSHIYCLAPFAETVKKQLRKITKSDVYTISSQPLAQYLLRQKEGYIISSQNIHLPESKSWIDIKLDHTELKRTICAITKEPYTKSDIGILLTLIQQLMTKTSTFH” the “soluble on expression in E. coli” value was “not soluble”. For “MEPAGPCGFCPAGEVQPARYTCPRCNAPYCSLRCYRTHGTCAENFY”, the “soluble on expression in E. coli” value was “soluble”. In the case of “MEALILEPSLYTVKAILILDNDGDRLFAKYYDDTYPSVKEQKAFEKNIFNKTHRTDSEIALLEGLTVVYKSSIDLYFYVIGSSYENELMLMAVLNCLFDSLSQMLRKNVEKRALLENMEGLFLAVDEIVDGGVILESDPQQVVHRVALR”, the “soluble on expression in E. coli” value is reported as “soluble”. In the case of “MGSDKIHHHHHHMSSIYSAPILVFDVNETLLDIDTLTPLFTRLFGDENRLREWFAQLVLYSQTMTLSGLYTPFGELGVGALQMTADIHAVTLTEEDIQEFKQRMSETPAHPDVIPALTKLRDAGFRLVTLTNSAPSTSPTRLEKAGLSEFFEQNFSVDSVRQFKPAPAIYQMVASELSVETSELCLVACHIWDTIGAQAAGCQGAFVTRPYNALLSAPNVPKPDFIASDLITLAEHIINHQSS”, the “soluble on expression in E. coli” value is reported as “not soluble”. For “MNTGHDGALAYDEPIYLSDGNIINIGEFVDKFFKKYKNSIKKEDNGFGWIDIGNENIYIKSFNKLSLIIEDKRILRVWRKKYSGKLIKITTKNRREITLTHDHPVYISKTGEVLEINAEMVKVGDYIYIPKNNTINLDEVIKVETVDYNGHIYDLTVEDNHTYIAGKNEGFAVSASSGTLHHHHHH”, the “soluble on expression in E. coli” value was “soluble”. In the case of “MTQHFPTRQLRFFLTAPTPCPYLPGREERKVFAHLPLSDGPIVNDSLTQVGFRRSQNIAYRPACETCRACQSARAPATEYILSRSERKILGRNDDLERHLVEAEATLEQFELLRRYLLTRHADGGMAEMTWPDYVAMVEDTAVRTHLIEYRRKSLDRGPGDLVACVLVDVLADGLSLVYSFYEPDQPRRSLGSFIILDHIVQAQQNALPYVYLGYWVPGSEKMAYKARFSPLEILKPGGWSLMSARERGARPPRGPGALKDACDLPLSDAQPADIEDLDLEHHHHHH”, the “soluble on expression in E. coli” value is reported as “not soluble”. With “MEDILMPEGEKVSMENFALLRVLGKGAYGKVFLVRKVGGKDHNTIYAMKVLRKTRVLTKQKTLEHTMAERQVLERLRGTPFLVNLFYAFQTDTKLHIVMEYVRGGELFTHLCSRGHFDLEAARFVIAELVVAIDSLHQRKVIYRDLKLENILLDEEGHVKLTDFGLSKLFLPGELDRANSYCGTIEYMSPEVINRPEGGYSDVVDWWSLGVISFELLTGCSPFTVDGAQNSSKDIAKRIMTKKVPFPKTMDVDARDFIGQLLEKKLEKRLGYNGVDEIKNHKFMSSIDWDAAVKRTLKPVIVPRIGHDLDTQFFSAEFTSQPPLYSPAESPLNANTLFRGYSYVSPSVIFANDNVIGEELMAEDVNALLASSSFFAKYKLDKSDAGLLGKGAFSVVRRCERVVDGAQFAVKIVSQKFASQAQREARILEMVQGHPNIVQLHDVHSDPLHFYLVMEILTGNELLERIRKLERFTESEAADIMRQLVSAVKYLHDKRIVHRDLKPENILFESIDSSARLRLVDFGFARLLPNSMEQQLKSVQVLRKMTPCFTLQYAAPEVLDVGDSQPEYNEQCDLWSLGVVLFTMLSGQVPFHARSRQESATEIMQRICRAEFSFTGDAWTNVSADAKNLITGLLTVDPKKRLSMQELTAHMWLKSSASMDTPLQTPSILPSSADETFNETLRAFLHANRDGFHLLDVAAAPLMKRRGIKRQSGDKDASGNSKNSRVTQFECLPEEQEAEMTSSTSRPSNLGMMNYREPNSGTIRETRGSDSS” the “soluble on expression in E. coli” value was “not soluble”. In the case of “MNTSILAPPESLLEAQKVRLAIREGYDRPTAGMANGLTQVNMISVPQDWAYDFLLYTQRNPQSCPVLDVIDAGQFQSRLIQDKQHDIRTDFPRYRIWEYGQCVDEVNDATSIWNNHPDLVTFLIGCSFSFESALLNAGIEVRHITDQRNVPMYLSNIPCASAGRISGNMVVSMRPIPAAQVSQAVQITAKMPRVHGAPVHIGDPKSLGIADLSKPDFGDFPRILDGEIPVFWACGVTPQAAVMRSKVPFAISHAPGYMLITDVPDQAWMLLEHHHHHH”, the “soluble on expression in E. coli” value is reported as “not soluble”. In the case of “MKLVNVTNSYKQLVNKQLENTDAYFVKVYSAGNTTAVYSEAAHHVEVLIMNKNRRIRPTEVKEILAKLLKRLPKEAYDPDEISIIELNHVTEVSVPLKVSLMEN”, the “soluble on expression in E. coli” value is reported as “not soluble”. With “MVAPGKKFTLRHIFKNVTKWKTGEIFYSPDEEHFNVPWQMCIHRENGNMCVILCCLKVEEDRVPWKINFEYQLKIVNISGMSIVKAGNKICTEKRRFVRRQFISRNTLKSGYLVDDIITVEATVKITKVSKKQLRSFDKSNKKFSDVILAIEDEKFYVLKKFLASHSTYFKTLLLGKFEEAERQEVKLQDIDSTDFQNLMEVLYGESAIDDGTIKGILELADMYDMPFPIRKCEEFLIDSSEKSIKEKLKIAKQYKMENLKNSCLSKVNTVRDIKAAMTGDPTEMDLSVLAALLGKSLALH” the “soluble on expression in E. coli” value was “not soluble”. For “MKFEAIAVEKIPLIHEGDNLPSIICEKIGLQDRDIMIIASTIVAKAEGEIFRLEDITPGEEALEIAARTGKDPRFIQAVLSKSREVFVETPFMLVTTLAGHTCVNAGIDESNIENGFLLYPPENPDASALKIGKELEKLSGKKLSIIITDTNGRAFKIGQTGVAIGIYNIKPVKRWIGEKDLFGKVLEITEQAIADELAGAANLLMGEGAGGIPVVIIRGLDYYCEGDTSIKESYRPENMDVIKQGLRCLRNKK”, the “soluble on expression in E. coli” value was “not soluble”. For “TTAYMEYNTTGSVKGLDNVKIRRALNLATNRKGVVQAAVDTGSKPAIAFAPTGLAKTPDGTDLAKYVAPGYEYNKTEAAKLFKEGLAESGLTKLKLTITADADAPAAKNSVDYIKSTWEAALPGLTVEEKFVTFKQRLEDSRKQNFDIVVSLWGGDYPEGSTFYGLFKSDSQNNDGKFANKDYDAAYNKAISEDAMKPAESAKDYKEAEKILFEQGAYNPLYFRSGKGLQNPKLKGVIRNTTGLSIDFTHAYKK”, the “soluble on expression in E. coli” value was “not soluble”. For “MDGILSHNSKKTADFDEYELYRRLKSWYKEDVEHVNEWREQAREDFDFYNGRQWAEEDLAVLKAQRRPVMTFNRIAPLVNAIVGAERNNKREVQFQPRQAGAAISNELLTGAAEWFRDEAEAEYADSDAFQDMVICGMGWTDTRLDYETDPEGIPAIQRLDPLKMVWDANAVRPNLIDAQRMWYVDRKPVEDAKSLFPDVAVEDLHADWATDNTTACEEYHVSLDAYNDHANADSLSQSASEKRYVTLVECRWFEYEVYFKAPDLQTGQMRSYSKQEFEQLQRVAPQLQGVRFNKKVVKRAFLGRRLLAKPDKPLAPDGQLGWECITGTLDKLKNQFYGIVRPAKDPQKWSNKYFSQVMYILNSQAKGGLMAERGAFDDERQALENWTRTDTITWVKNGALTGGKIQPKPSAQFPNGFFQLFNESREAITHVTGLSAEFIGTREVNQANVLENTRRQSTLNLLAGLFDNLKLYRCRQGKIILYLIQNYLSDGRLVRISGPENAQYVPLTREAVTKLEYDIIVDDSPTSPNEKERTFAAITQMLPLLGGFLTPEMIPDLLKLSPLPATLVANLTAKAQQAQQEQQQQQMMQQNQGTQLNPEQQAKIAALQQEAQAKGTLYQLDAQQKQLALQQKNIELFLKQEQARMQLELQRAKNEIAQRDLERKSLQAQLEHYRVLTKRLIPH”, the “soluble on expression in E. coli” value was “not soluble”. In the case of “GSSVSSVPTKLEVVAATPTSLLISWDAPMSSSSVYYYRITYGETGGNSPVQEFTVPYSSSTATISGLSPGVDYTITVYAWGEDSAGYMFMYSPISINYRTC”, the “soluble on expression in E. coli” value is reported as “soluble”. With “AFSGTWQVYAQENYEEFLKALALPEDLIKMARDIKPIVEIQQKGDDFVVTSKTPRQTVTNSFTLGKEADITTMDGKKLKCTVHLANGKLVTKSEKFSHEQEVKGNEMVETITFGGVTLIRRSKRV” the “soluble on expression in E. coli” value was “soluble”. In the case of “MEEVMALSEPEQNTWINRPEYSEVSEDRIVIVSDANTDFWENTYYDFSHYTGHVYGKETESDFTFQVRVKADFSALYDQAGIFIGGTETAWIKAGIEFNDGQPSIGCVVTNNNSDWSTGLFPGNPGDFWMRVTSKSDVIRIQYSIDGKNWPLLRLCTWPGTRKRFIGVMCCSPKRKGLSAEFTEILLTTPLDSDLHDLSLEHHHHHH”, the “soluble on expression in E. coli” value is reported as “soluble”.
